Literature values in US20250333489A1 (ANDREMACON S.R.L., priority 2021, published 2025).

Molecular target: T1, EphB4 (Homo sapiens, UniProt P54760)
T1 sequence (P54760 16-987): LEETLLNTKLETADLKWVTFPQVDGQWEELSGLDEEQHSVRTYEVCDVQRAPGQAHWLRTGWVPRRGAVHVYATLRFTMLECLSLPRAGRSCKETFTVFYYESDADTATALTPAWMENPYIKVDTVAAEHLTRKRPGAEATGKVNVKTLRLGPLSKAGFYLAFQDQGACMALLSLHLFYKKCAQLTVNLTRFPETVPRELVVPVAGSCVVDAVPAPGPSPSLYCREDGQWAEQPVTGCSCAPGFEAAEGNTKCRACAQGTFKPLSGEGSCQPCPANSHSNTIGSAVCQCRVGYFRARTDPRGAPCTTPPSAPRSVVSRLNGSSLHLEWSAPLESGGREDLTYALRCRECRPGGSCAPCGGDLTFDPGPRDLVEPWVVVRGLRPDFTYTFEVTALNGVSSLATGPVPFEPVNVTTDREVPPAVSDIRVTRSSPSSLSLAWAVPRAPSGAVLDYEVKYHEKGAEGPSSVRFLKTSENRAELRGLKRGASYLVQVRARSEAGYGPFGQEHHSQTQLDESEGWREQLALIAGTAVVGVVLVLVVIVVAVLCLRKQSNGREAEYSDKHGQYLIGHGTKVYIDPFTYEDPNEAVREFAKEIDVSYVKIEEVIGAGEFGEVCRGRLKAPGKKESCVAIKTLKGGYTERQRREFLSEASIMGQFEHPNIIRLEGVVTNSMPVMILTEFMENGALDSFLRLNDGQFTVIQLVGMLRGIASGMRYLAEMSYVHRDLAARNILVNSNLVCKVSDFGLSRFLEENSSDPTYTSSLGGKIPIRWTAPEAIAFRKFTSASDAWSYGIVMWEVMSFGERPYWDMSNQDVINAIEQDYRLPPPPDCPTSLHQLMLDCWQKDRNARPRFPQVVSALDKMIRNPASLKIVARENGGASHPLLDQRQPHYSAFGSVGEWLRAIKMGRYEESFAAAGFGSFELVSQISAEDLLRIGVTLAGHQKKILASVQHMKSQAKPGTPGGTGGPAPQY
Conditions: read-out: binding affinity of Epo for EphB4 (KD)

Substance: Epo: 30.4 kDa glycoprotein produced and secreted mainly by the kidneys; main erythropoietic hormone
- Kd: 880 nM
